In PMC7379371 one finds Kd data, which are given here for two substances.

As a reminder, the Kd is the constant that tells how readily two partners part at equilibrium.

The target of experiment [1] is chimeric antibody I3.1 Fab (human). The experiment in a line: BLI; fortéBIO BLItz; Fab (0.2 mg/mL) immobilised on Anti-Human Fab-CH1 second generation biosensors; gp120 core in solution at three or more concentrations (9.6 to 110 μM); 10 mM Tris, pH 7.5, 100 mM NaCl; global fit of at least three measurements.
Chain of chimeric antibody I3.1 Fab (human) (heavy, as listed by the source, chain 1 of 2): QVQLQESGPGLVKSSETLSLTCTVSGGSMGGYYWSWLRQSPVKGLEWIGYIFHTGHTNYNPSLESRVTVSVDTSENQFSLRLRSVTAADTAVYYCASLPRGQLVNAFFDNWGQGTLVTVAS
Chain of chimeric antibody I3.1 Fab (human) (light, as listed by the source, chain 2 of 2): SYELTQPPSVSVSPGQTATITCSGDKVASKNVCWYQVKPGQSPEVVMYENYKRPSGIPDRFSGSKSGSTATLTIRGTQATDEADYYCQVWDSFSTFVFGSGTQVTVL
The target is the same in experiment [2]. Briefly: BLI; […]; Fab (0.2 mg/mL) […] (9.6 to 110 μM); 10 mM Tris, pH 7.5, 100 mM NaCl; […]. Background: BLI is a label-free optical method that tracks binding on a fibre tip over time.

The substance “92UG037.8 gp120 core WT (domain or fragment)” had a Kd in experiment [1] of 3280 nM. In other words, the single-digit micromolar range. In turn, “CH505 T/F gp120 core WT (domain or fragment)” gave a dissociation constant (Kd) in experiment [2] of 1980 nM.
